Test results taken from publication doi:10.1101/2023.07.22.550172 (bioRxiv, 2023).

Target: the molecule itself
Assay: cryo-EM structure

B1: major pilin PilA of Myxococcus xanthus (MXAN_5783), mature, as the subunit of the type IV pilus (natural protein, UniProt Q59589 13-220, looked up)
chain: FTLIELMIVVAIIGILAAIAIPNFIKFQARSKQSEAKTNLKALYTAQKSFFSEKDRYSDFANEIGFAPERGNRYGYRVSAAAGDCEVRNAADLPVPAAGVPCISNDSFRFGANSAIDDPTPVVARFVPQGAAGWNTTLGVQPTIADCPNCNFFAGARGNADNEATFDDWVIAGFEGSGQVGPCSEAGNVASGTPYNTRNDVACDGAAQ
- binding result: binds
